# Laboratory results published in patent US12404345B2, “Humanized antibodies against iRHOM2” (SCIRHOM GMBH, priority 2021, dated 2025).
# Numbering of substitutions follows the chain as printed.
# B1: 16-B-03: humanized antibody binding human iRhom2; HCVD SEQ ID NO 1, LCVD SEQ ID NO 5 (antibody, V domains shown)
# VH: QVTLRESGPALVKPTQTLTLTCTFSGFSLSTFALGVGWIRQPPGKALEWLAHIWWDDDKYYNPALKSRLTISKDTSKNQVVLTITNMDPVDTATYYCARITTYYYGMDYWGQGTLVTVSS
# VL: EIVMTQSPDFQSVTPKEKVTITCRASQSIGNHLHWYQQKPDASPKLLIKYASQSISGVPSRFSGSGSGTDFTLTINSLEAEDAATYFCQQSYQWPLTFGQGTKLEIK
# modifications: antibody sequences
# B2: 16-B-05: humanized antibody binding human iRhom2; HCVD SEQ ID NO 9, LCVD SEQ ID NO 13 (antibody, V domains shown)
# VH: B1 VH with D57E
# VL: B1 VL with Q93N
# modifications: antibody sequences
# B3: 16-B-07: humanized antibody binding human iRhom2; HCVD SEQ ID NO 17, LCVD SEQ ID NO 21 (antibody, V domains shown)
# VH: B1 VH with D57E
# VL: B1 VL
# modifications: antibody sequences
# B4: 23-B-04: humanized antibody binding human iRhom2; HCVD SEQ ID NO 25, LCVD SEQ ID NO 29 (antibody, V domains shown)
# VH: QVTLRESGPALVKPTQTLTLTCTFSGFSLSTFGMGVGWIRQPPGKALEWLAHIWWDDEKYYNSALKSRLTISKDTSKNQVVLTITNMDPVDTATYYCARISNYGSNYWYFNVWGQGTLVTVSS
# VL: AIQLTQSPSSLSASVGDRVTITCRASSSVSYMYWYQQKPGKAPKVLIYDTSNLASGVPSRFSGSGSGTDYTLTISSLQPEDFATYYCQQWNAYPLTFGQGTKLEIK
# modifications: antibody sequences
# B5: 42-B-04: humanized antibody binding human iRhom2; HCVD SEQ ID NO 41, LCVD SEQ ID NO 45 (antibody, V domains shown)
# VH: B4 VH with M34R, S101Q, N111D
# VL: B4 VL with S28R, V29I, Y33F
# modifications: antibody sequences
# B6: 42-B-02: humanized antibody binding human iRhom2; HCVD SEQ ID NO 33, LCVD SEQ ID NO 37 (antibody, V domains shown)
# VH: B4 VH with M34R, S101Q, N111D
# VL: B4 VL with S28R, V29I, Y33F, A92S
# modifications: antibody sequences
# Experiments:
# dog iRhom1 = assay: FACS binding on MEF-DKO-Dog-iR1-FL-WT-T7 cells; details: antibody at 3 μg/ml
# From the text: (§1) Next, iRhom1/2−/− DKO MEFs stably expressing a tagged form of rhesus monkey, cynomolgus monkey, dog or rabbit iRhom2 were generated in order to determine cross-reactivity of the antibodies of the invention with the respective orthologue of iRhom2. iRhom1/2−/− DKO MEFs stably expressing a tagged form of rhesus monkey, cynomolgus monkey, dog or rabbit iRhom1 were generated to confirm specificity for iRhom2 versus iRhom1 of these species.
# (§2) In brief, on day 1, Phoenix-ECO cells (American Type Culture Collection, USA) were seeded on 6-well tissue culture plates (Greiner, Germany) in standard growth medium at 8×10^5 cells per well and kept overnight at 37° C., 5% CO2. On day 2, the medium was replaced by fresh medium supplemented with chloroquine (Sigma-Aldrich, USA) at a final concentration of 25 μM. Applying the calcium phosphate method, cells were transfected with 2 μg/ml of pMSCV (Clontech, USA) empty vector, pMSCV-rhesus-iR2-FL-WT-T7 encoding rhesus monkey iRhom2 full length wild type C-terminally tagged with 3 consecutive copies of the T7 epitope, pMSCV-cyno-iR2-FL-WT-T7 encoding cynomolgus monkey iRhom2 full length wild type C-terminally tagged with 3 consecutive copies of the T7 epitope, pMSCV-dog-iR2-FL-WT-T7 encoding dog iRhom2 full length wild type C-terminally tagged with 3 consecutive copies of the T7 epitope or pMSCV-rabbit-iR2-FL-WT-T7 encoding rabbit iRhom2 full length wild type C-terminally tagged with 3 consecutive copies of the T7 epitope, respectively, and were kept at 37° C., 5% CO2. After 7 hours, the transfections were stopped by replacing cell supernatants with standard growth medium lacking chloroquine, and cells were incubated at 37° C., 5% CO2 to allow virus production overnight. In parallel, immortalized iRhom1/2−/− DKO MEFs as target cells for retroviral infection were seeded on 6-well tissue culture plates (Greiner, Germany) in standard growth medium at 1×10^5 cells per well and were also kept overnight at 37° C., 5% CO2. On day 3, the supernatants of Phoenix-ECO cells releasing pMSCV, pMSCV-rhesus-iR2-FL-WT-T7, pMSCV-cyno-iR2-FL-WT-T7, pMSCV-dog-iR2-FL-WT-T7 or pMSCV-rabbit-iR2-FL-WT-T7 ecotrophic virus, respectively were collected, filtered with 0.45 μm CA filters, and supplemented with 4 μg/ml of polybrene (Sigma-Aldrich, USA). Upon removal of medium from the immortalized iRhom1/2−/− DKO MEFs, the virus containing supernatants were added to the target cells for 4 hours at 37° C., 5% CO2 for first infection. Simultaneously, Phoenix-ECO cells were re-incubated with fresh medium, which, after another 4 hours, was filtered and used for the second infection of the respective target cell populations, again in the presence of 4 μg/ml of polybrene. Likewise, a third, but overnight infection cycle was performed. On day 4, virus containing cell supernatants were replaced by fresh standard growth medium. From day 5 onwards, cells were grown in the presence of 2 mg/ml of geneticin (G418, Thermo Fisher Scientific, USA) for the selection of immortalized MEF-DKO-EV control cells stably infected with pMSCV empty vector, pMSCV-rhesus-iR2-FL-WT-T7 cells stably expressing rhesus monkey iRhom2 full length wild type C-terminally tagged with 3 consecutive copies of the T7 epitope, pMSCV-cyno-iR2-FL-WT-T7 cells stably expressing cynomolgus monkey iRhom2 full length wild type C-terminally tagged with 3 consecutive copies of the T7 epitope, pMSCV-dog-iR2-FL-WT-T7 cells stably expressing dog iRhom2 full length wild type C-terminally tagged with 3 consecutive copies of the T7 epitope or pMSCV-rabbit-iR2-FL-WT-T7 cells stably expressing rabbit iRhom2 full length wild type C-terminally tagged with 3 consecutive copies of the T7 epitope, respectively. Upon propagation, cells were stocked for future usage. In parallel, iRhom1/2−/− DKO MEFs stably expressing a tagged form of rhesus monkey, cynomolgus monkey, dog or rabbit iRhom1 were generated in an analogous manner. […]
# rhesus monkey iRhom2 = molecular target: T1, rhesus monkey iRhom2 (Macaca mulatta, UniProt F6Y4X6); assay: FACS cross-reactivity on MEF-DKO-Rhesus-iR2-FL-WT-T7 cells; type: binding; details: antibody at 3 μg/ml
# T1 construct: pMSCV-rhesus-iR2-FL-WT-T7 encoding rhesus monkey iRhom2 full length wild type; expressed in transfected cells; host or cells: immortalized iRhom1/2-/- DKO mouse embryonic fibroblasts, pMSCV retroviral infection
# T1 sequence (F6Y4X6 1-827): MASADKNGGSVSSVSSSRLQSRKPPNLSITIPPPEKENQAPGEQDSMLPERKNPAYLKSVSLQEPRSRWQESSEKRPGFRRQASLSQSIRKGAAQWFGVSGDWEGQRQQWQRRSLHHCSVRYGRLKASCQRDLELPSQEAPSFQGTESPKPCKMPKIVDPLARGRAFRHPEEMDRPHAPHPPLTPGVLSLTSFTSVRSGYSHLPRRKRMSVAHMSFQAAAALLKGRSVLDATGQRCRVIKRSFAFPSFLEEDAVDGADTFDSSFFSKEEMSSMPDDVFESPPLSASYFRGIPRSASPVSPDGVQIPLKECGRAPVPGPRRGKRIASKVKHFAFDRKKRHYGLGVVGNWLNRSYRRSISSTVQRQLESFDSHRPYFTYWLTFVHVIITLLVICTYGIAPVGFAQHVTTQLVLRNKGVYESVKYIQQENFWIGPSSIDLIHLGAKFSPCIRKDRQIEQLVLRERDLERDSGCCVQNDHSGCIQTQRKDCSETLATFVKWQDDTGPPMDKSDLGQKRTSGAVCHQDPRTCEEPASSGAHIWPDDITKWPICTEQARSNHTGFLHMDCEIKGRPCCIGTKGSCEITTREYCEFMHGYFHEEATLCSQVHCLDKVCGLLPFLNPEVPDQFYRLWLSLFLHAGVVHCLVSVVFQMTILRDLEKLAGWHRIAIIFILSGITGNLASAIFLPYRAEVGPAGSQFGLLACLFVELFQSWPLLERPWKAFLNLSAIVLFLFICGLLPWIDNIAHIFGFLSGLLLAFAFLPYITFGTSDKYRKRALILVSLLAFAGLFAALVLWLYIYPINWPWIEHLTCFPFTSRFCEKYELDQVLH
# From the text: as §1, §2
Molecule,binding to dog iRhom1 on MEF-DKO-Dog-iR1-FL-WT-T7 cells (dog iRhom1),binding to rhesus monkey iRhom2 on MEF-DKO-Rhesus-iR2-FL-WT-T7 cells (rhesus monkey iRhom2)
B1,no significant binding,Strong binding
B2,do not recognize dog iRhom1,recognize rhesus monkey iRhom2
B3,do not recognize dog iRhom1,recognize rhesus monkey iRhom2
B4,do not recognize dog iRhom1,recognize rhesus monkey iRhom2
B5,do not recognize dog iRhom1,recognize rhesus monkey iRhom2
B6,do not recognize dog iRhom1,recognize rhesus monkey iRhom2
